Source: PMC11456856

Biological target: human FcRider (afucosylated two-unit tandem hIgG1 Fc joined by the trimerization sequence Foldon)
Experiment: native gel or EMSA; blue native PAGE, 1.5 h at 150 V in NativePAGE running buffer; hFcRider purified by Protein A column; monomer ~65 kDa in reducing SDS-PAGE

- stoichiometry N: 6
Substance: human FcRider (afucosylated two-unit tandem hIgG1 Fc joined by the trimerization sequence Foldon)
